Reference: paper PMC4914113, “Another look at the mechanism involving trimeric dUTPases in Staphylococcus aureus pathogenicity island induction involves novel players in the party” (Nucleic Acids Research, 2016)
pKd: −log10 of the molar value.

Columns and labels:
[1] = target: Dut80α D81A D110C S168C (Staphylococcus aureus phage 80α); experiment: BLI; as a1 but non-reducing buffer (400 mM NaCl, 75 mM HEPES pH 7.5, 5 mM MgCl2); no nucleotide; 1:1 model
[2] = target: Dut80α^WT, wild-type dUTPase of phage 80α (Staphylococcus aureus phage 80α); experiment: BLI; as a1, buffer STL supplemented with 5 mM dUMP (baselines and dissociation without nucleotide); 1:1 model
[3] = target: Dut80α^ΔV, Dut80α motif V deletion mutant (Staphylococcus aureus phage 80α); experiment: as above
[4] = target: Dutϕ11^WT, wild-type dUTPase of phage ϕ11 (Staphylococcus aureus phage ϕ11); experiment: as above
[5] = target: Dut80α D81A D110C S168C (Staphylococcus aureus phage 80α); experiment: BLI; as a1, buffer STL supplemented with 0.5 mM dUPNPP (baselines and dissociation without nucleotide); 1:1 model
[6] = target: Dut80α^D81A (Staphylococcus aureus phage 80α); experiment: as above
[7] = target: Dut80α^F165A (Staphylococcus aureus phage 80α); experiment: as above
[8] = target: Dut80α^G164S (Staphylococcus aureus phage 80α); experiment: as above
[9] = target: Dut80α^WT, wild-type dUTPase of phage 80α (Staphylococcus aureus phage 80α); experiment: as above
[10] = target: Dut80α^Y84I (Staphylococcus aureus phage 80α); experiment: as above
[11] = target: Dut80α^ΔV, Dut80α motif V deletion mutant (Staphylococcus aureus phage 80α); experiment: as above
[12] = target: Dut80α^ΔVI, Dut80α lacking motif VI (Staphylococcus aureus phage 80α); experiment: as above
[13] = target: Dutϕ11^(ΔVI F164A) (Staphylococcus aureus phage ϕ11); experiment: as above
[14] = target: Dutϕ11^WT, wild-type dUTPase of phage ϕ11 (Staphylococcus aureus phage ϕ11); experiment: as above
[15] = target: Dutϕ11^ΔV, Dutϕ11 motif V deletion mutant (Staphylococcus aureus phage ϕ11); experiment: as above
[16] = target: Dutϕ11^ΔV-ΔVI (Staphylococcus aureus phage ϕ11); experiment: as above
[17] = target: Dutϕ11^ΔVI, Dutϕ11 lacking motif VI (Staphylococcus aureus phage ϕ11); experiment: as above
[18] = target: Dut80α^Y84I (Staphylococcus aureus phage 80α); experiment: BLI; BLItz; His-tagged Dut immobilised at 1 μM on Ni-NTA biosensors, Stl in solution (at least five dilutions, 4 to 0.062 μM); buffer STL (400 mM NaCl, 75 mM HEPES pH 7.5, 5 mM MgCl2, 2 mM DTT); no nucleotide; 1:1 model
[19] = target: Dut80α^ΔVI, Dut80α lacking motif VI (Staphylococcus aureus phage 80α); experiment: as above
[20] = target: Dutϕ11^(ΔVI F164A) (Staphylococcus aureus phage ϕ11); experiment: as above
[21] = target: Dutϕ11^ΔV-ΔVI (Staphylococcus aureus phage ϕ11); experiment: as above

## Stl repressor from SaPIbov1 (natural protein)
[1]
  pKd: 8.22
  koff: 0.00085 s⁻¹
  kon: 140000 M⁻¹ s⁻¹
[2]
  pKd: 7.63
  koff: 0.0008 s⁻¹
  kon: 34000 M⁻¹ s⁻¹
[3]
  pKd: 6.22
  koff: 0.005 s⁻¹
  kon: 8300 M⁻¹ s⁻¹
[4]
  pKd: 8.71
  koff: 5.8e-05 s⁻¹
  kon: 30000 M⁻¹ s⁻¹
[5]
  pKd: 6.72
  koff: 0.005 s⁻¹
  kon: 26000 M⁻¹ s⁻¹
[6]
  pKd: < 6.00
[7]
  pKd: < 6.00
[8]
  pKd: < 6.00
[9]
  pKd: 6.33
  koff: 0.0014 s⁻¹
  kon: 3000 M⁻¹ s⁻¹
[10]
  pKd: < 6.00
[11]
  pKd: 6.28
  koff: 0.0042 s⁻¹
  kon: 8000 M⁻¹ s⁻¹
[12]
  pKd: < 6.00
[13]
  pKd: 6.42
  koff: 0.0031 s⁻¹
  kon: 8200 M⁻¹ s⁻¹
[14]
  pKd: 6.52
  koff: 0.0006 s⁻¹
  kon: 2000 M⁻¹ s⁻¹
[15]
  pKd: 8.42
  koff: 5e-05 s⁻¹
  kon: 13000 M⁻¹ s⁻¹
[16]
  pKd: 6.70
  koff: 0.0019 s⁻¹
  kon: 9500 M⁻¹ s⁻¹
[17]
  pKd: 7.90
  koff: 0.00014 s⁻¹
  kon: 11000 M⁻¹ s⁻¹
[18]
  pKd: < 6.00
[19]
  pKd: < 6.00
[20]
  pKd: 6.88
  koff: 0.0021 s⁻¹
  kon: 16000 M⁻¹ s⁻¹
[21]
  pKd: 6.95
  koff: 0.0019 s⁻¹
  kon: 17000 M⁻¹ s⁻¹
